Results on one substance are retold here after US20050288223A1.

The target in the assay is mouse LSR (lipolysis stimulated receptor) (mouse) (UniProt Q99KG5). Description: cell-based or functional assay.
Chain of UniProt Q99KG5 (Q99KG5 36-594): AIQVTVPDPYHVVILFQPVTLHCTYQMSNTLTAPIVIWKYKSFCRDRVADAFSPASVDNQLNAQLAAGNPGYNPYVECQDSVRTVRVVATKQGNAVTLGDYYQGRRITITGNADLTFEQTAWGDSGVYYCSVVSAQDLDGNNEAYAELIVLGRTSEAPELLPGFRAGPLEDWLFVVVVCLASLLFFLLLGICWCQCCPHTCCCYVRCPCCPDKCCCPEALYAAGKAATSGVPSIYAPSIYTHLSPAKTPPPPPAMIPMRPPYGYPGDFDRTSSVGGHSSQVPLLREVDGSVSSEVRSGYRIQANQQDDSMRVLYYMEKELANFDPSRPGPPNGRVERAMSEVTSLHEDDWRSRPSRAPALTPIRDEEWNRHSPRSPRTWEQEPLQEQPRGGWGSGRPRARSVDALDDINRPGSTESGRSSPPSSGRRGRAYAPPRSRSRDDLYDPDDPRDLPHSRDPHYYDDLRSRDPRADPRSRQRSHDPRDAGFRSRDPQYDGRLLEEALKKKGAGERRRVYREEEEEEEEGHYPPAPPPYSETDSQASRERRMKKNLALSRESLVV

“125I-mouse leptin (from UniProt P41160 22-167) (ligand)” registered a cell-associated 125I-leptin in BPRCL mouse liver cells after pre-incubation with increasing AdipoQ (AQ) or globular AdipoQ (AQ-GH) of more than 30%.
